Experimental data reported in US20240360203A1.

Molecular target: SARS-CoV-2 BA.4/5+K444T Spike on pseudovirus (SARS-CoV-2), P0DTC2
Assay: cell-based or functional assay

B1: AB-1 (antibody, V domains shown)
VH: EVQLVESGAEVKKPGESLKISCKGSGYTFTRYWIGWVRQMPGKGLEWMGIIYPGDSDVRYSPSFQGHVTISADKSISTAYLQWNSLKASDTAMYYCARLPQYCSKGVCYRWFDPWGQGTLVTVSS
VL: EIVLTQSPSSVSASVGDRVTITCRASQGISSWLAWYQQKPGKAPKLLIYAASSLQSGVPSRFSGSGSGTDFTLTISSLQPEDFATYYCQQGHSFPYTFGQGTNLEIK
IC50, pseudovirus neutralization: 9.4 ng/mL
